# Measured values: patent publication US20200392252A1 (ALLOGENE THERAPEUTICS, published 2020)
# Residue numbers refer to the chain shown, from its start.
# B1: 2299.5D4.C8 (antibody, V domains shown)
# VH: QIQLVQSGPELKKPGETVKISCKASGYTFTDYSIHWVKQAPGEGLKWMAWINTETGAPTFADDFKGRLALSLETSANTAYLQINNLKHEDTATYFCAKEGGFYFYAMDYWGQGTSVTVSS
# VL: DIVMSQSPSSLAVSAGEKVTMSCKSSQSLLSSRTRKNYLAWYQQKPGQAPKLLISWASTRESGVPDRFTGSGSGTEFTLTISSVQAEDLAVYYCKQSYNLRTFGGGTKLEIK
# B2: 2299.6B3.B8.B6 (antibody, V domains shown)
# VH: QIQLVQSGPELKKPGETVKISCKASGYAFTDYSIHWMKQAPGEGLQWMGWINTETAKPAFGDDFKGRFAFSLETSANTAHLHINNLRTEDTATYFCAKEGGFYFYAMDYWGQGTSVTVSS
# VL: B1 VL with S22N, A49S, S55Y, E61D, E76D, L100F
# B3: 2299.7F11.B4 (antibody, V domains shown)
# VH: B1 VH with E43K, A57D, F60Y, A61E, L68F, L70F, N77S, H88N, A97S
# VL: B1 VL with A49S, S55K, E76D
# B4: 2299.2G3.C6 (antibody, V domains shown)
# VH: B1 VH
# VL: B1 VL with L11R, L52M, S62F, S73F, E76D, A86G, L100F
# B5: 2299.6G5.C7 (antibody, V domains shown)
# VH: B1 VH with E43K, A49G, L68F, L70F, N77S, Y80F, H88N, V116L
# VL: B1 VL with A15T, E76D, Y98F
# Molecular target: T1, FokI catalytic domain protein including a C-terminal 6xHis tag and GSGS linker (Flavobacterium okeanokoites, UniProt P14870 426-579)
# T1 construct: also called Fok-1; Fok1
# T1 sequence: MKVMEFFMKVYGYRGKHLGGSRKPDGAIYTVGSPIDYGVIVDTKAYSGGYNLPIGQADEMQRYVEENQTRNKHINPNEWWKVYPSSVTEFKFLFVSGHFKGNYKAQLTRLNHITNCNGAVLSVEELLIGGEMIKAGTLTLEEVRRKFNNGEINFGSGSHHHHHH
# Assay: Biacore SPR, antibody as ligand, FokI as analyte
Binder,Kd [nM],koff [s⁻¹],kon [M⁻¹ s⁻¹],t1/2 [h]
B1,< 7.63,< 8.55e-05,11200,> 2.25
B2,< 8.66,< 8.55e-05,9870,> 2.25
B3,< 1.13,< 8.55e-05,75700,> 2.25
B4,< 4.83,< 8.55e-05,17700,> 2.25
B5,< 16.2,< 8.55e-05,5270,> 2.25
